Test results as given in the supplement of paper PMC10567573.

B1: SNX8 (parent)
chain: VVLKLFLSFSGSDVQNKLKESAQC
B2: TOR1AIP2 (parent)
chain: HHVADAYTSSQKVSPIQIDGAGRT

Variants of: B1
Assay: protein stability index of a GFP-peptide fusion (GPS, HEK-293T) (PSI 1-6); higher = more stable
Details: c terminus: a fixed tail appended
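Also: lentivirally expressed fusions sorted by FACS into six bins by GFP to DsRed ratio, PSI derived from sequencing read proportions per bin multiplied by bin number.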

Protein stability index, by site and new letter:
V2: L 2.09, Y 2.24, P 2.19, N 1.11, W 3.59, K 3.26, M 2.57, D 1.4, C 3.14
V1: S 3.54, F 2.81, H 1.6, E 2.47, A 1.96, N 1.36, Y 2.69, W 1.04, Q 4.24, R 2.71, T 2.48, P 1.85, I 3.61
V14: E 1.91, H 1.59, N 1.99, A 2.43, K 1.82, Y 2.62, S 4.53, D 2.3, T 2.53

Variants of: B2
Assay: as above
Details: c terminus: a fixed tail appended

Protein stability index: each site, then its substitutions
T24: D 4.18, Y 2.93, P 3.46, E 4, R 3.68, G 3.85, F 2.81, N 3.97, A 3.36, S 3.58, L 3.09, V 3.51, C 3.43, W 2.97, M 2.98, H 3.38, I 3, Q 3.3, K 3.9
G20: A 3.53, M 3.44, E 3.36, L 2.78, D 4.01, I 3.04, S 3.23, Q 3.7, W 2.33, H 3.31, P 3.28, F 3.06, Y 2.83, C 3.19, V 3.33, T 3.48, R 3.38, N 3.58, K 3.38
I18: P 4.15, N 3.96, S 3.72, E 3.73, F 2.9, H 3.85, M 3.84, Y 2.97, K 3.98, C 3.61, Q 3.75, D 4.28, W 3.26, V 3.76, R 3.58, A 4.03, L 3.57, T 3.87, G 3.47
A21: L 3.42, R 3.55, K 3.42, V 3.34, F 3.18, W 2.67, E 3.32, I 3.34, S 3.67, Q 3.85, G 3.62, H 3.7, P 3.48, M 3.58, C 3.48, N 3.44, T 3.85, Y 3.22, D 4.16
G22: R 3.19, H 3.47, Y 2.82, N 3.25, K 3.72, C 3.6, V 3.4, F 2.7, Q 3.5, S 3.36, D 3.99, M 3.32, A 3.58, T 3.09, L 2.92, I 3.26, W 2.46, P 3.61, E 3.93
D19: Q 3.75, N 3.34, E 3.43, G 3.4, S 3.2, T 3.07, I 2.54, R 2.93, P 3.06, V 3.28, F 2.77, M 2.7, C 3.1, K 3.14, H 2.87, L 2.36, A 3.01, W 1.94, Y 2.47
R23: Q 3.71, W 3.1, Y 2.94, E 3.91, N 3.81, A 3.86, M 3.26, L 3.36, I 3.45, D 4.11, P 3.01, F 3.12, K 3.28, T 3.47, G 3.68, V 3.29, H 3.76, C 3.68, S 3.83
Q17: V 3.49, Y 2.66, W 2.31
